Assay results reported in patent US20240301067A1 (WUXI BIOLOGICS IRELAND, published 2024).

T1: Mouse PD-1 on 293F cells (mouse, UniProt Q02242 25-288)
T1 construct: whole, on cells; also called 293F.mPro1.B4; WBP305.293F.mPro1.B4
T1 sequence (looked up): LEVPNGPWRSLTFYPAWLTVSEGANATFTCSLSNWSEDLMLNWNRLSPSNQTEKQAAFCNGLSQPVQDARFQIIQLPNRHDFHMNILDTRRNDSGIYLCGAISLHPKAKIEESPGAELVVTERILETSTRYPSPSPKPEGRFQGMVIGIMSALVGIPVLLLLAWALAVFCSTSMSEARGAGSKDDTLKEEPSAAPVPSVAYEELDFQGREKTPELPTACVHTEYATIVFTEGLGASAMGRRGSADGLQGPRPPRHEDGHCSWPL

T2: Human BTLA extracellular domain, His (human, UniProt Q7Z6A9 31-157)
T2 construct: extracellular domain; Bought; also called hBTLA.ECD.His; not shown: His tag
T2 sequence (looked up): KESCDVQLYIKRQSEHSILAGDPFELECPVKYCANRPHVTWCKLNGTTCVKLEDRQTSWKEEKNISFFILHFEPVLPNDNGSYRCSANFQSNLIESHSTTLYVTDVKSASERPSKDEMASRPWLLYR

T3: Human CTLA-4 extracellular domain, His tag (human, UniProt P16410 36-161)
T3 construct: extracellular domain; also called hCTLA-4.ECD.His; not shown: 6xhis tag at C-terminus
T3 sequence (looked up): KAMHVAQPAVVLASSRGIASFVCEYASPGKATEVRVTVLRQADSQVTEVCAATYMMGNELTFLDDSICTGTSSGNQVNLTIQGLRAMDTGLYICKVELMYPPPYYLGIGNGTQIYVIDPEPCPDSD

T4: Human ICOS extracellular domain, mFc tag (human, UniProt Q9Y6W8 21-140)
T4 construct: extracellular domain; also called hICOS.ECD.mFc; not shown: mouse Fc tag at C-terminus
T4 sequence (looked up): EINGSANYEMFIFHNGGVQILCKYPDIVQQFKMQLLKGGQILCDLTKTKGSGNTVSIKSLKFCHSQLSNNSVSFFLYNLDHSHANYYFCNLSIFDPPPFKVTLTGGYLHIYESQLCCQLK


Legend:
Mouse PD-1 on 293F cells = molecular target: T1, Mouse PD-1 on 293F cells; experiment: FACS competition on 293F.mPro1.B4 cells; competitor mProL1.ECD.mFc 5 µg/mL
Description: The mouse PD-1 transfected 293F.mPro1.B4 cells were transferred into 96-well U-bottom plates at a density of 2×10⁵ cells/well. Various concentrations of anti-PD-1 antibodies (3-fold serially diluted from 1334 nM to 0.07 nM) and constant concentration of mouse Fc tagged mouse PD-L1 ECD protein (mProL1.ECD.mFc) (5 μg/mL) were pre-mixed and incubated with cells at 4° C. for 1 hour. After washing with 1×PBS/1% BSA, the secondary antibody PE-labeled goat anti-mouse IgG was applied and incubated with cells at 4° C. for 1 hour. The cells were then washed and resuspended in 1×PBS/1% BSA. MFI of the cells was measured by a flow cytometer and analyzed by FlowJo (version 7.6.1).

[1] = molecular target: T5, Human PD-1 on CHO-S cells (human, UniProt Q15116 25-288); experiment: FACS competition on CHO-S.hPro1.C6 cells; competitor hProL1.ECD.mFc 5 µg/mL
T5 construct: whole, on cells; also called CHO-S.hPro1.C6; WBP305.CHO-S.hPro1.C6
T5 sequence (Q15116 25-288): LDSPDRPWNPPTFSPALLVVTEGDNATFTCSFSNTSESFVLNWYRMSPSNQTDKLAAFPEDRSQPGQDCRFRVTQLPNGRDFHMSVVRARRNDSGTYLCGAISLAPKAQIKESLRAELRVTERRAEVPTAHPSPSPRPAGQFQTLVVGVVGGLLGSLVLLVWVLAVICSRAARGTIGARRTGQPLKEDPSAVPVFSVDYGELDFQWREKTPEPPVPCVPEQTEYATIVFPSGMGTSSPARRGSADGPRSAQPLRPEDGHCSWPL
Description: The human PD-1 transfected CHO-S.hPro1.C6 cells were transferred into 96-well U-bottom plates at a density of 2×10⁵ cells/well. Various concentrations of antibodies (4-fold serially diluted from 133.3 nM to 0.008 nM) and constant concentration of mouse Fc tagged PD-L1 ECD protein (hProL1.ECD.mFc) (5 μg/mL) were pre-mixed and incubated with cells at 4° C. for 1 hour. After washing with 1×PBS/1% BSA, the secondary antibody PE-labeled goat anti-mouse IgG was applied and incubated with cells at 4° C. for 1 hour. The cells were then washed and resuspended in 1×PBS/1% BSA. MFI of the cells was measured by a flow cytometer and analyzed by FlowJo (version 7.6.1).

[2] = molecular target: T5, Human PD-1 on CHO-S cells; experiment: FACS on CHO-S.hPro1.C6 cells
Description: The cells CHO-S.hPro1.C6 (2×10⁵ cells/well) were incubated with various concentrations of anti-PD-1 antibodies (4-fold serially diluted from 133.3 nM to 0.008 nM) at 4° C. for 1 hour. After washing with 1×PBS/1% BSA, the secondary antibody PE-labeled goat anti-human IgG was applied and incubated with cells at 4° C. for 1 hour. Anti-human PD-1 antibodies BMK1 and BMK3 were used as positive control. Human IgG4 isotype antibody was used as negative control. The cells were then washed and resuspended in 1×PBS/1% BSA. MFI of the cells was measured by a flow cytometer (BD) and analyzed by FlowJo (version 7.6.1).

[3] = molecular target: T2, Human BTLA extracellular domain, His; experiment: ELISA, coated antigen 1 ug/mL, antibody 100 nM, HRP goat anti-human IgG
Description: (§1) Plates were pre-coated with 1 μg/mL, 100 μL per well of hPD-1.ECD.mFc, hCD28.ECD.mFc, hCTLA-4.ECD.His, hICOS.ECD.mFc or hBTLA.ECD.His at 4° C. overnight. After 1-hour blocking using 200 μL of 1×PBS/2% BSA, testing antibodies were added to the plates at a concentration of 100 nM. The plates were incubated at ambient temperature for 1 hour. The binding of the antibodies to the immobilized proteins was detected by HRP-labeled goat anti-human IgG antibody. The color was developed by dispensing 100 μL of TMB substrate, and then stopped by 100 μL of 2N HCl. The absorbance was read at 450 nm and 540 nm using a microplate spectrophotometer.

[4] = molecular target: T3, Human CTLA-4 extracellular domain, His …; experiment: as above
Description: as §1

[5] = molecular target: T4, Human ICOS extracellular domain, mFc tag; experiment: as above
Description: as §1

[6] = molecular target: T6, Human CD28 extracellular domain, mFc tag (human, UniProt P10747 19-152); experiment: as above
T6 construct: extracellular domain; also called hCD28.ECD.mFc; not shown: mouse Fc tag at C-terminus
T6 sequence (P10747 19-152): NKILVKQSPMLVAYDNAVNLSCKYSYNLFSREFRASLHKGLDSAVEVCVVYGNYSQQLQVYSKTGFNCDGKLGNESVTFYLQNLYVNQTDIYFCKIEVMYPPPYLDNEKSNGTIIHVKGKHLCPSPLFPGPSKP
Description: as §1

| IC50 (Mouse PD-1 on 293F cells) | IC50 [1] | EC50 [2] | binding result [3] | binding result [4] | binding result [5] | binding result [6] | Binder |
| --- | --- | --- | --- | --- | --- | --- | --- |
| 22.1 nM | 1 nM | 1.87 nM | no binding (tested: 100 nM) | no binding (tested: 100 nM) | no binding (tested: 100 nM) | no binding (tested: 100 nM) | W3056-AP17R1-2H2-FC(IgG4.SP) (Fc fusion, VHH fused to Fc of human IgG4 S228P; also called W3056 lead parental antibody (VHH-Fc(hIgG4) fusion); not shown: Fc of human IgG4 (hIgG4.S228P)) QVQLVESGGGLVQPGGSLRLSCAASDSIDSLVNMGWYRQAPGKQRELVALIANYITHYADFVKGRFTISRDAAKNTVNLQMSSLKPEDTAVYYCYARNIIVDYWGQGTQVTVSS |
| 10.2 nM | 0.655 nM | 0.612 nM | no binding (tested: 100 nM) | no binding (tested: 100 nM) | no binding (tested: 100 nM) | no binding (tested: 100 nM) | W3056-AP17R1-2H2-Z1-R1-14A1-FC(IgG4.SP) (Fc fusion, also called W3056 lead antibody (VHH-Fc(hIgG4) fusion); not shown: Fc of human IgG4 (hIgG4.S228P)) QVQLVESGGGVVQPGGSLRLSCAASDSIDSLVNMGWYRQAPGKQRELVALIATYITHYADFVKGRFTISRDNSKNTLYLQMNSLRAEDTAVYYCYARNIIVDYWGQGTLVTVSS |
